Test results published in PMC10944524.
Blank lines part the entries; values can stand above or below the substance they belong to.

Tests used:
[1] = molecular target: Masked SpyCatcher003 (N-terminal His6 tag-SpyCatcher003-TEV protease cleavage site-SpyTag003 D117A); assay: covalent coupling (isopeptide bond) followed by SDS-PAGE and densitometry; Masked SpyCatcher003, before or after cleavage by superTEV protease, with SpyTag003-MBP; both partners at 5 µM, 37 °C, PBS pH 7.4, time course
[2] = molecular target: Unmasked Catcher (Masked SpyCatcher003 after cleavage by superTEV protease); assay: as above
[3] = molecular target: DoubleCatcher (N-terminal His6 tag-TEV protease cleavage site-two SpyCatcher003 moieties connected by a (GSG)3 spacer-TEV protease cleavage site-SpyTag003 DA); assay: covalent coupling (isopeptide bond) followed by SDS-PAGE and densitometry; DoubleCatcher 2.5 µM with SpyTag003-mClover3 5 µM, no TEV protease, PBS pH 7.4, 37 °C, time course
[4] = molecular target: unmasked DoubleCatcher:SpyTag003-MBP; assay: covalent coupling (isopeptide bond) followed by SDS-PAGE and densitometry; step 1: DoubleCatcher with two-fold excess SpyTag003-MBP for 2 h, excess removed on bead-immobilized SpyCatcher003; step 2: superTEV protease at 34 °C, then 2 µM of the cleaved construct with 10 µM SUMO-SpyTag003, time course

Substance: SpyTag003 linked to maltose-binding protein (MBP)
percent reacted after 60 min [1]: 3.7%
half-time of reaction (t1/2) [2]: 2.7 min
percent reacted [2]: > 99%

Substance: SpyTag003 linked to the green fluorescent protein mClover3
half-time of reaction (t1/2) [3]: 0.58 min
percent reacted after 1 h [3]: 91%

half-time of reaction (t1/2) [4]: 3.6 min
percent reacted [4]: > 98%
Substance: SpyTagged Small Ubiquitin-like Modifier (N-terminal His6 tag-SUMO protein-SpyTag003)
